Measured values reported in patent US20240270821A1, “GIP/GLP1/GCG TRI-RECEPTOR AGONISTS AND USES THEREOF” (priority 2023, published 2024).
Positions count from the first letter of the chain named. Starred links: 1 amine or outer side, 2 acyl side, 3 side chain; linkers in the order of their positions; H or OH if unused. Non-standard residues stand in square brackets, D forms with d. Groups on a side chain read outwards from the residue. No end group written: not given here. *: point of attachment. C18 diacid = O=C(O)CCCCCCCCCCCCCCCCC(=O)*; γGlu = O=C(O)[C@H](CCC(=O)[*:2])N[*:1]; αMeL = CC(C)C[C@](C)(N)C(=O)O; Dap = NC[C@H](N)C(=O)O; AEEA = NCCOCCOCC(=O)O; Aib = CC(C)(N)C(=O)O

T1: human GIP receptor (human) (UniProt P48546)
T1 sequence (looked up): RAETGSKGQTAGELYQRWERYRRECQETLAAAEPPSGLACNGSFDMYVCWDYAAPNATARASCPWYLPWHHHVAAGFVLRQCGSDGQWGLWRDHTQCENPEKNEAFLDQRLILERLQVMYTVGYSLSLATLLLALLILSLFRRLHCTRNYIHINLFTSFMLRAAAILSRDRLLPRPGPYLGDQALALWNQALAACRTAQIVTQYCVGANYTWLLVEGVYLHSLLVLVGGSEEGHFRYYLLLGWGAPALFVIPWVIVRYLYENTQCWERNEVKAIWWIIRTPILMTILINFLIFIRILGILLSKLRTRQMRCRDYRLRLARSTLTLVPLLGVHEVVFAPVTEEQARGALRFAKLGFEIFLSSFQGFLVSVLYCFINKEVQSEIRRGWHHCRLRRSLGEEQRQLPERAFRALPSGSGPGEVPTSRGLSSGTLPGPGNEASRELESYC

B1: Example 151 (peptide)
chain: YXQGTFTSDFSQXLDKKAQXAFIEYLLEXGPSSGAPPPSGS
modifications: Lys acylated with AEEA-γGlu-C18 diacid; non-natural residues; C-amide; synthetic construct; SITE 2: note = 2-Aminoisobutyric Acid; SITE 13: note = alpha-methyl-leucine; SITE 17: note = Lysine is chemically modified through conjugation of the epsilon-amino group of the Lysine side chain with (2-[2-(2-Amino-ethoxy)-ethoxy]-acetyl)-(gamma-Glu)-CO-(CH2) 16-CO2H; SITE 20: n
B2: Example 129 (peptide)
chain: B1 chain with Q12X, X29A, S41E
modifications: synthetic construct; SITE 2: note = 2-Aminoisobutyric Acid; SITE 12: note = L-ornithine; SITE 13: note = alpha-methyl-leucine; SITE 17: note = Lysine is chemically modified through conjugation of the epsilon-amino group of the Lysine side chain with (2-[2-(2-Amino-ethoxy)-ethoxy]-acetyl)-(gamma-Glu)
B3: Example 158 (peptide)
chain: B1 chain with Q12X, X29G, S39G, S41T
modifications: Lys acylated AEEA-γGlu-C18 diacid; non-natural residues; C-terminal amide; synthetic construct; SITE 2: note = 2-Aminoisobutyric Acid; SITE 12: note = L-ornithine; SITE 13: note = …; SITE 17: note = Lysine is chemically modified through conjugation of the epsilon-amino group of the Lysine side chain with (2-[2-(2-Amino-ethoxy)-ethoxy]-acetyl)-(gamma-Glu)
B4: Example 136 (peptide)
chain: B1 chain with Q12X, Y25W, X29G, P36X, S41E
modifications: synthetic construct; SITE 2: note = 2-Aminoisobutyric Acid; SITE 12: note = L-ornithine; SITE 13: note = alpha-methyl-leucine; SITE 17: note = Lysine is chemically modified through conjugation of the epsilon-amino group of the Lysine side chain with (2-[2-(2-Amino-ethoxy)-ethoxy]-acetyl)-(gamma-Glu)
B5: Example 115 (peptide)
chain: YXQGTFTSDXSXXLDKKAQXAFIEWLLEGGPSSGEPPPSGE
modifications: synthetic construct; SITE 2: note = 2-Aminoisobutyric Acid; SITE 10: note = 3-(4-Pyridyl)-L-alanine; SITE 12: note = L-ornithine; SITE 13: note = alpha-methyl-leucine; SITE 17: note = Lysine is chemically modified through conjugation of the epsilon-amino group of the Lysine side chain with (2-[2-(2-
B6: Example 132 (peptide)
chain: B1 chain with F10X, Q12R, P31E
modifications: synthetic construct; SITE 2: note = 2-Aminoisobutyric Acid; SITE 10: note = 3-(4-Pyridyl)-L-alanine; SITE 13: note = alpha-methyl-leucine; SITE 17: note = Lysine is chemically modified through conjugation of the epsilon-amino group of the Lysine side chain with (2-[2-(2-Amino-ethoxy)-ethoxy]-acetyl)
B7: Example 157 (peptide)
chain: B1 chain with Q12X, X29A, A35E, S41Q
modifications: Aib, Orn, alpha-methyl-Leu, D-Ala, lipidated Lys, amide; synthetic construct; SITE 2: note = 2-Aminoisobutyric Acid; SITE 12: note = L-ornithine; SITE 13: note = alpha-methyl-leucine; SITE 17: note = Lysine is chemically modified through conjugation of the epsilon-amino group of the Lysine side chain with (2-[2-(2-Amino-ethoxy)-ethoxy]-acetyl)2-(gamma-Glu)
B8: Example 122 (peptide)
chain: B5 chain with X10F, P31H, E35A
modifications: synthetic construct; SITE 2: note = 2-Aminoisobutyric Acid; SITE 12: note = L-ornithine; SITE 13: note = alpha-methyl-leucine; SITE 17: note = Lysine is chemically modified through conjugation of the epsilon-amino group of the Lysine side chain with (2-[2-(2-Amino-ethoxy)-ethoxy]-acetyl)-(gamma-Glu)
B9: Example 116 (peptide)
chain: B1 chain with Q12X, X29A, A35E, G40E, S41G
modifications: synthetic construct; SITE 2: note = 2-Aminoisobutyric Acid; SITE 12: note = L-ornithine; SITE 13: note = alpha-methyl-leucine; SITE 17: note = Lysine is chemically modified through conjugation of the epsilon-amino group of the Lysine side chain with (2-[2-(2-Amino-ethoxy)-ethoxy]-acetyl)2-(gamma-Glu)
B10: Example 118 (peptide)
chain: B1 chain with Q12X, X29G, S39G, G40E
modifications: synthetic construct; SITE 2: note = 2-Aminoisobutyric Acid; SITE 12: note = L-ornithine; SITE 13: note = alpha-methyl-leucine; SITE 17: note = Lysine is chemically modified through conjugation of the epsilon-amino group of the Lysine side chain with (2-[2-(2-Amino-ethoxy)-ethoxy]-acetyl)2-(gamma-Glu)

Assays:
Assay in all cases: cell-based or functional assay
[1] = molecular target: human glucagon receptor (human) (UniProt P47871)
[2] = molecular target: T1, human GIP receptor (human)
hGLP-1R = hGLP-1R (Homo sapiens, UniProt P43220)
[3] = molecular target: human GLP-1R (SNAP-GLP-1R expressed in HEK293 cells) (human) (UniProt P43220)
human GLP-1R (SNAP-GLP-1R expressed in HEK293 cells) (human), sequence (P43220 24-463): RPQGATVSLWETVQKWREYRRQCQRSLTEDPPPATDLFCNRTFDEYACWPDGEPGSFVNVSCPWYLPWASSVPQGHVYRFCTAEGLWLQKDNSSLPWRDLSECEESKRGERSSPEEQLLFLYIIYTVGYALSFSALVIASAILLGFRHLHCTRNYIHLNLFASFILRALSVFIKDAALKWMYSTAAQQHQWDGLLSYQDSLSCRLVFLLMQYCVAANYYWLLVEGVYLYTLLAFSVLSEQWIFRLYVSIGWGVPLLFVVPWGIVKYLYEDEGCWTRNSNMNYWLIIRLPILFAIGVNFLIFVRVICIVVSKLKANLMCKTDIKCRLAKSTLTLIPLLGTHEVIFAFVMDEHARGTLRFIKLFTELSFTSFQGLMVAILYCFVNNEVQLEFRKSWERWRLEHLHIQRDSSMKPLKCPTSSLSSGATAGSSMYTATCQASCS

human glucagon receptor (human), sequence (P47871 26-477): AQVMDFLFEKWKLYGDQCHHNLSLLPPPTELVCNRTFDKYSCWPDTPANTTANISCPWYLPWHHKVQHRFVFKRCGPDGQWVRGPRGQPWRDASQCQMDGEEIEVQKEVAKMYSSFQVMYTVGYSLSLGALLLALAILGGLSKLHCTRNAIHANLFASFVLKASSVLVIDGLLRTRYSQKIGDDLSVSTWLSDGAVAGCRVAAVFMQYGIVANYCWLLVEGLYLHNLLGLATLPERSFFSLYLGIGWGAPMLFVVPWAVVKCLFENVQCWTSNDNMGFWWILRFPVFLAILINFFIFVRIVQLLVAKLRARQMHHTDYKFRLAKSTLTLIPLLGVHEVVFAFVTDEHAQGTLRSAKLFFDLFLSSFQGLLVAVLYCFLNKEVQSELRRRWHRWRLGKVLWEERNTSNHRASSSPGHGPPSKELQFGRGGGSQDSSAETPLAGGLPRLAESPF
hGLP-1R, sequence (P43220 24-463): as the sequence (P43220 24-463) above

| Binder | Relative cAMP EC50, nM (0.1% casein) [1] [nM] | cAMP Rel EC50, nM (1% HSA) [1] [nM] | Relative cAMP EC50, nM (0.1% casein) [2] [nM] | cAMP Rel EC50, nM (1% HSA) [2] [nM] | Relative cAMP EC50, nM (0.1% casein) (hGLP-1R) [nM] | cAMP Rel EC50, nM (1% HSA) (hGLP-1R) [nM] | GLP1R Internalization EC50 [3] [nM] | Internalization % TOP [3] [%] | Relative cAMP EC50 [1] [nM] | cAMP Rel EC50, nM (in the presence of 1% HSA) [1] [nM] | Relative cAMP EC50 [2] [nM] | cAMP Rel EC50, nM (in the presence of 1% HSA) [2] [nM] | Relative cAMP EC50 (hGLP-1R) [nM] | cAMP Rel EC50, nM (in the presence of 1% HSA) (hGLP-1R) [nM] |
| --- | --- | --- | --- | --- | --- | --- | --- | --- | --- | --- | --- | --- | --- | --- |
| B1 | 3.5 | 1420 | 0.0784 | 14.9 | 1.6 | 384 | 77.8 | 55 |  |  |  |  |  |  |
| B2 |  |  |  |  |  |  | 22.5 | 40.6 | 2.01 | 510 | 0.134 | 24.3 | 1.87 | 284 |
| B3 | 3.72 | 325 | 0.245 | 24.7 | 2.49 | 184 | 104 | 52.4 |  |  |  |  |  |  |
| B4 |  |  |  |  |  |  | 36.1 | 37.8 | 8.73 | 960 | 0.221 | 32.9 | 3.8 | 625 |
| B5 |  |  |  |  |  |  | 255 | 56.5 | 10.6 | 2210 | 0.457 | 73.9 | 7.6 | 1460 |
| B6 |  |  |  |  |  |  | 72.7 | 67.2 | 2.63 | 632 | 0.21 | 25.9 | 5.72 | 823 |
| B7 | 4.16 | 838 | 0.183 | 22.2 | 3.04 | 496 | 60.3 | 53.3 |  |  |  |  |  |  |
| B8 |  |  |  |  |  |  | 57.4 | 43.7 | 3.95 | 548 | 0.189 | 32.6 | 3.93 | 468 |
| B9 |  |  |  |  |  |  | 80.7 | 46.2 | 3.96 | 882 | 0.382 | 40.4 | 7.83 | 401 |
| B10 |  |  |  |  |  |  | 82.3 | 46.4 | 7.02 | 2460 | 0.43 | 63.4 | 6.03 | 1450 |
| Y[Aib]QGTFTSDFS[Dap][αMeL]LDKK([AEEA-γGlu-C18 diacid])AQ[Aib]AFIEYLLE[Aib]GPSSGAPPPSGS-NH2 [Example 134] |  |  |  |  |  |  | 67.9 | 22.3 | 7.28 | 1200 | 0.152 | 38.3 | 3.36 | 549 |
